Test results from patent US20210261937.

B1: hsSENP2 (protein)
chain: EFPEITEEMEKEIKNVFRNGNQDEVLSEAFRLTITRKDIQTLNHLNWLNDEIINFYMNMLMERSKEKGLPSVHAFNTFFFTKLKTAGYQAVKRWTKKVDVFSVDILLVPIHLGVHWCLAVVDFRKKNITYYDSMGGINNEACRILLQYLKQESIDKKRKEFDTNGWQLFSKKSQEIPQQMNGSDCGMFACKYADCITKDRPINFTQQHMPYFRKRMVWEILHRKLL
B2: SUMOstar protease (protein)
chain: LVPELNEKDDDQVQKALASRENTQLMNRDNIEITVRDFKTLAPRRWLNSGIISFFMKYIEKSTPNTVAFNSFFYTNLSERGYQGVRRWMKRKKTQIDKLDKIFTPINLNQSHWALGIIDLKKKTIGYVDSLSNGPNAMSFAILTDLQKYVMEESKHTIGEDFDLIHLDCPQQPNGYDCGIYVCMNTLYGSADAPLDFDYKDAIRMRRFIAHLILTDALK
B3: bdSENP1^MutB protease (protein)
chain: PFVPLTDEDEDNVRHALGGRKRSETLSVHEASSIVITREILQCLNDKEWLNDEVINLYLELLKERELREPNKFLKCHFFNTFFYKKLINGGYDYKSVREWTTKRKLGYNLIDCDKIFVPIHKDVHWCLAVINIKEKKFQYLDSLGYMDMKALRILAKYLVDEVKDKSGKQIDVHAWKQEGVQNLPLQENGWDCGMFMLKYIDFYSRDMELVFGQKHMSYFRRRTAKEILDLKAG

Legend:
[1] = target: scSUMO-MBP fusion protein with the bdSUMO^Mut1 exchanges
[2] = target: bdSUMO Mut14-MBP fusion protein
[3] = target: bdSUMO D67K-MBP fusion protein
[4] = target: bdSUMO Mut10-MBP fusion protein
[5] = target: hsSUMO2-MBP fusion protein with the bdSUMO^Mut1 exchanges
[6] = target: bdSUMO Mut11-MBP fusion protein
[7] = target: bdSUMO Mut12-MBP fusion protein
[8] = target: scSUMO-MBP fusion protein with the bdSUMO^Mut11 exchanges
[9] = target: bdSUMO Mut13-MBP fusion protein
[10] = target: bdSUMO Mut8-MBP fusion protein
[11] = target: bdSUMO^Mut1-MBP fusion protein
[12] = target: hsSUMO2-MBP fusion protein
[13] = target: scSUMO-MBP fusion protein
[14] = target: bdSUMO-MBP fusion protein
[15] = target: hsSUMO2-MBP fusion protein with the bdSUMO^Mut11 exchanges
[16] = target: bdSUMO Mut15-MBP fusion protein

Row | Protein | cleavage of SUMO-MBP fusion, 1 h at 25 °C (FIG. 14) [1] | cleavage of the SUMO fusion protein [2] | cleavage of the SUMO fusion protein [3] | cleavage of the SUMO fusion protein [4] | cleavage of SUMO-MBP fusion, 1 h at 25 °C (FIG. 14) [5] | cleavage of the SUMO fusion protein [6] | cleavage of the SUMO fusion protein [7] | cleavage of SUMO-MBP fusion, 1 h at 25 °C (FIG. 14) [8] | cleavage of the SUMO fusion protein [9] | cleavage of the SUMO fusion protein [10] | cleavage of the SUMO fusion protein [11] | cleavage of the SUMO fusion protein [12] | cleavage of the SUMO fusion protein [13] | cleavage of the SUMO fusion protein [14] | cleavage of SUMO-MBP fusion, 1 h at 25 °C (FIG. 14) [15] | cleavage of the SUMO fusion protein [16] | cleavage of 100 µM fusion, 1 h at 0 °C (FIG. 7) (SUMOstar-MBP fusion) | other results
1 | B1 | allowed cleavage resistance against Ulp1, SUMOstar protease, hsSENP2 and bdSENP1 | resistant | resistant | resistant | allowed cleavage resistance against Ulp1, SUMOstar protease, hsSENP2 and bdSENP1 | resistant | resistant | allowed cleavage resistance against Ulp1, SUMOstar protease, hsSENP2 and bdSENP1 | resistant | resistant | resistant | 100 % cleavage | 100 % cleavage | < 50 % cleavage | allowed cleavage resistance against Ulp1, SUMOstar protease, hsSENP2 and bdSENP1 | resistant |  | 
2 | B2 | allowed cleavage resistance against Ulp1, SUMOstar protease, hsSENP2 and bdSENP1 | resistant | resistant | resistant | allowed cleavage resistance against Ulp1, SUMOstar protease, hsSENP2 and bdSENP1 | resistant | resistant | allowed cleavage resistance against Ulp1, SUMOstar protease, hsSENP2 and bdSENP1 | resistant | resistant | resistant | < 25 % cleavage | 100 % cleavage | 100 % cleavage | allowed cleavage resistance against Ulp1, SUMOstar protease, hsSENP2 and bdSENP1 | resistant | SUMOstar protease only recognized SUMOstar-MBP | cleavage of bdSUMO-MBP variants by 10 µM SUMOstar protease, 2 h at 25 °C (FIG. 5) [3]: the D67K mutation alone was necessary and sufficient for blocking cleavage; cleavage of 100 µM fusion, 1 h at 0 °C (FIG. 7) [11]: left intact the bdSUMO^Mut1-MBP fusion protein even at the highest SUMOstar protease concentration of 10 µM
3 | B3 |  | 100 % cleavage | < 75 % cleavage | 100 % cleavage |  | 100 % cleavage | 100 % cleavage |  | 100 % cleavage | < 50 % cleavage | 100 % cleavage | resistant | resistant | < 25 % cleavage |  | 100 % cleavage | the SUMOstar-MBP fusion remained intact even at the highest protease concentration of 10 µM | molar excess of substrate cleaved within one hour at 0 °C [11]: able to cleave a 500-fold molar excess of substrate within one hour at 0 °C; protease concentration that cleaves the cognate substrate, 1 h at 0 °C (FIG. 7) [11]: bdSENP1^MutB protease only cleaved its cognate substrate at a concentration of 200 nM; protease concentration that cleaves ≈95% of 100 µM substrate, 1 h at 0 °C [11]: only 200 nM of bdSENP1^MutB protease were enough to cleave ≈95% of the cognate substrate (bdSUMOmut 1); proteolytic efficiency against TEV protease [11]: around 1000-fold more efficient than the site-specific protease from the tobacco etch virus (TEV protease); proteolytic efficiency against bdSENP1 or Ulp1 on their cognate substrates [11]: only 5-fold less efficient as compared bdSENP1 or Ulp1; cleavage of SUMO-MBP fusion (FIG. 14) [12]: wild type scSUMO and human SUMO-2 (hsSUMO2) fusion proteins remain intact even in the presence of extremely high concentration of bdSENP1^MutB; cleavage of SUMO-MBP fusion (FIG. 14) [13]: wild type scSUMO and human SUMO-2 (hsSUMO2) fusion proteins remain intact even in the presence of extremely high concentration of bdSENP1^MutB
